± gives the standard deviation of the averaged measurements.
test system: ATP; assay: switch fluorescence ratio, 500 uM ATP over buffer (Cy3 cluster intensity, sum of 5 cycles each) (fold (ratio)); higher = stronger signal-on switching upon ATP binding; sequences stand for … in TCGTCGGCAGCGTCAGATGTGTATAAGAGACAGTTTTTTTTTTTTTTTTTTTTTTTTT…TC; conditions: aptamer strand: ATP DNA aptamer (quencher-CACCTGGGGGAGTATTGCGGAGGAAGG + anchor), 100 nM annealed; ATP concentration: 500 uM
How it was run: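 Between each of five buffer/ATP cycles, the flow-cell was stripped with NaOH and re-annealed. Each cycle imaged Cy3-labelled switching-strand clusters, annealed to 100 nM quencher-labelled ATP aptamer on a modified Illumina MiSeq flow-cell, first in selection buffer and then after 15 min with 500 uM ATP at 22 °C. The fluorescence ratio is summed target-cycle over summed buffer-cycle Cy3 intensity per cluster, averaged per switch-domain sequence, with clusters outside 100-1000 RFU excluded.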
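Further: ATP exposure 15 min at 22 °C before imaging.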

Row | Sequence | switch fluorescence ratio
1 | TTGTTTATGG | 0.983 ± 0.015
2 | TTTTACTTCT | 1.04 ± 0.062
3 | TAGTAATTGA | 1 ± 0.02
4 | ATTTTAGGGT | 0.989 ± 0.022
5 | AAAAAGAAGA | 0.976 ± 0.033
6 | GGGATAGGGT | 1 ± 0.027
7 | TGTAAATTTT | 1.03 ± 0.041
8 | GGGACGATTG | 0.985 ± 0.059
9 | CGTTAGTAAG | 0.982 ± 0.033
10 | TTTTTGGCGC | 1.01 ± 0.032
11 | TTTTTAAA | 0.988 ± 0.017
12 | CTTAACCATT | 0.98 ± 0.014
13 | GAAATGTGTT | 1 ± 0.056
14 | TCCCGATTTC | 1.07 ± 0.024
15 | TTTTCCCGAA | 0.967 ± 0.026
16 | CGATAACGGG | 1.07 ± 0.077
17 | CGAATAGTTG | 1.005 ± 0.0085
18 | ATGTGGACTG | 1.05 ± 0.014
19 | TTTAAGTATT | 0.999 ± 0.02
20 | TGGTGGGGTG | 0.986 ± 0.012
21 | TTTTTTTAGA | 0.995 ± 0.022
22 | TTCGAGAGTA | 1.05 ± 0.1
23 | GCCTGTGGGA | 1.01 ± 0.035

Row | Sequence | switch fluorescence ratio
24 | TTCTGTGGGA | 1.002 ± 0.006
25 | CGTAGTATAG | 1.24 ± 0.017
26 | TTATAGTATT | 0.957 ± 0.044
27 | TGATTTTGGG | 0.997 ± 0.035
28 | CATTAATTTG | 1.01 ± 0.012
29 | GCTATTTACT | 1.06 ± 0.076
30 | TAGGGGGGCT | 0.968 ± 0.045
31 | ACGGAACAGC | 1.11 ± 0.13
32 | GCTTGGTCAT | 0.9714 ± 0.0035
33 | GTTTGAAGCC | 1.04 ± 0.078
34 | GGGGATCGTT | 1.02 ± 0.021
35 | GAACACTTCT | 1.05 ± 0.014
36 | TTTGTAAAAT | 0.99 ± 0.021
37 | GGGGTTGGCT | 0.995 ± 0.03
38 | GGCCTGAAAC | 0.9929 ± 0.0037
39 | GGGGGATAGT | 0.998 ± 0.032
40 | TTACTGGGGC | 1.03 ± 0.03
41 | CAGACTGGGG | 1 ± 0.039
42 | TTCAAGTGTA | 1.01 ± 0.022
43 | GATTTGCAGG | 0.983 ± 0.033
44 | GAGGGGTGCA | 0.992 ± 0.015
45 | CCTCGGTTTT | 1.24 ± 0.013
46 | TGATGTACGT | 1 ± 0.011

Row | Sequence | switch fluorescence ratio
47 | GCTGTTGGAG | 1.02 ± 0.031
48 | CACTATAATG | 1.05 ± 0.042
49 | TCGTTTCGCA | 1.11 ± 0.023
50 | TTTGAAATAC | 2.2 ± 0.025
51 | GGACGTCTGA | 1.02 ± 0.041
52 | TAAAAAAAGA | 0.999 ± 0.046
53 | TTGATGCTAT | 1.32 ± 0.43
54 | CAGCGTATTG | 1.04 ± 0.037
55 | CCGGAGTGGA | 2.56 ± 1.3
56 | TATTGGGAAT | 0.985 ± 0.01
57 | CCGGTCCCTA | 1 ± 0.011
58 | ATCGATGAAT | 0.995 ± 0.015
59 | TGTGTGGCGC | 1.02 ± 0.032
60 | TTAGGCCGGG | 0.998 ± 0.041
61 | GTTGAAAGCG | 1.03 ± 0.015
62 | GCTTCTACAG | 1.047 ± 0.01
63 | TTGGGCATGG | 1.02 ± 0.048
64 | GGATTTGAGG | 1 ± 0.026
65 | GGGTCATTCA | 0.9922 ± 0.0049
66 | TTTGGCGGAG | 0.992 ± 0.03
67 | GAGTTATGGA | 1.03 ± 0.019
68 | AGGGGTTTTT | 0.991 ± 0.011
69 | CCTGCGGGGA | 1.31 ± 0.29

Row | Sequence | switch fluorescence ratio
70 | TGGTAGGGTG | 1.01 ± 0.034
71 | GATTGACGGC | 1 ± 0.045
72 | GGGCCTGGAA | 1.01 ± 0.069
73 | ATTACGGAAC | 1.26 ± 0.018
74 | TCGTGAGGCT | 0.989 ± 0.036
75 | GGTCAGTGTC | 0.981 ± 0.052
76 | GCGAGTTATG | 1.03 ± 0.031
77 | GGGGTAGCGG | 0.92645 ± 0.0002
78 | CTGGTGTAGT | 1.03 ± 0.047
79 | CTCGCCGCGG | 1.08 ± 0.038
80 | TTACGGACGA | 1.317 ± 0.0043
81 | CGGGGTGGGA | 1.01 ± 0.029
82 | TTTGACATGT | 0.975 ± 0.038
83 | TAGGGTTAAG | 0.9994 ± 0.004
84 | ATGGTGGATT | 0.965 ± 0.025
85 | AAGGTAGTGG | 0.962 ± 0.017
86 | TCCAGGAGGG | 1.025 ± 0.0075
87 | ACCGTGTGTG | 0.995 ± 0.046
88 | AGCAAAGTGT | 1.02 ± 0.071
89 | CATATGTTGA | 0.975 ± 0.026
90 | TTTGTTCTT | 1 ± 0.014
91 | TTTGGACAGT | 0.978 ± 0.03
92 | TGAATTATGT | 0.985 ± 0.048

Row | Sequence | switch fluorescence ratio
93 | GGCTTCTGAT | 0.999 ± 0.022
94 | TCAGGGGGGC | 1.28 ± 0.62
95 | CTTTTCTGTT | 0.9861 ± 0.0085
96 | AAGGGAAGGG | 0.998 ± 0.025
97 | TCGTGTACTA | 1.02 ± 0.035
98 | AGAATTAGTG | 0.953 ± 0.1
99 | ACTAAGTCTG | 1.02 ± 0.045
100 | TCTCCCTTGT | 1.03 ± 0.024
101 | TCATTTTCGG | 0.986 ± 0.025
102 | ATTTTGTCGG | 0.968 ± 0.018
103 | TTGTTAGGGT | 0.958 ± 0.011
104 | AGGCAAAAAT | 1.008 ± 0.004
105 | AGCCAGGGGG | 1.03 ± 0.043
106 | TTGCTTTAGA | 0.974 ± 0.012
107 | GATGGATCGA | 0.977 ± 0.039
108 | ATTACGGTCT | 1.04 ± 0.02
109 | GTAAATATGG | 0.987 ± 0.024
110 | TTAGCCGCGG | 0.997 ± 0.016
111 | ATTTGAATTA | 1.01 ± 0.034
112 | GCAGTTGGTA | 0.989 ± 0.02
113 | CTCCCTTCGA | 1.17 ± 0.036
114 | GCGACGAGGG | 1.033 ± 0.0017
115 | GTTAGTGTAG | 0.9975 ± 0.0011

Row | Sequence | switch fluorescence ratio
116 | AATTTTAGAG | 0.973 ± 0.045
117 | ATCGAAGGGA | 0.985 ± 0.041
118 | TGAGCAGCGG | 1.01 ± 0.044
119 | TTTTGGGTTA | 0.992 ± 0.043
120 | AATAGTACAA | 1.04 ± 0.0056
121 | CTAAATATTA | 1.031 ± 0.0049
122 | TTGTTGCAGC | 1.02 ± 0.035
123 | ATCTCAGTGT | 0.971 ± 0.04
124 | TGGAGTTGGT | 0.987 ± 0.047
125 | ATTTGCTTTA | 1.02 ± 0.012
126 | GCAGGCCGAG | 1.05 ± 0.037
127 | GAGTGCGGTT | 0.99 ± 0.057
128 | CAAGAATCTG | 0.9606 ± 0.0091
129 | TGTTACCTGA | 1.058 ± 0.01
130 | AGGTTTTTTA | 1.02 ± 0.022
131 | TTTGGGGTCC | 1.07 ± 0.1
132 | TGAGAGATTG | 0.9773 ± 0.007
133 | TTTGCTACTG | 1.052 ± 0.0096
134 | TTTAAGTAGG | 1.02 ± 0.048
135 | CAGTGAGACT | 1.02 ± 0.037
136 | CGGCGGGGAG | 1 ± 0.044
137 | TGGGGTTGAA | 0.958 ± 0.022
138 | TGTTTTAAGG | 1.009 ± 0.0081

Row | Sequence | switch fluorescence ratio
139 | TTGTCCTCCT | 1.11 ± 0.11
140 | GAATTCAAGG | 1.01 ± 0.082
141 | GATTTGGAGC | 0.9911 ± 0.0076
142 | TTAGAAGATT | 1 ± 0.044
143 | TAAGGGTTGG | 0.978 ± 0.03
144 | ACGGCGAGGG | 1.02 ± 0.039
145 | CAATAGATGG | 0.999 ± 0.016
146 | CACTTAGGTG | 1.19 ± 0.032
147 | GATAGAGGGA | 0.999 ± 0.01
148 | GGTCCAGTGT | 1.06 ± 0.016
149 | TTTAGACTGG | 1 ± 0.022
150 | GGGGTGAGCC | 0.978 ± 0.017
151 | TTTCGGAGGG | 0.982 ± 0.034
152 | ATACGAACGT | 0.9928 ± 0.0019
153 | CACTACGAAT | 1.051 ± 0.007
154 | TTTTGGGTCC | 1.06 ± 0.04
155 | TTAGGTTACT | 1.028 ± 0.0039
156 | ACGTTGATGG | 0.9882 ± 0.0095
157 | TCTTCCTAGA | 1.031 ± 0.01

Reference: the supplement of paper PMC10126150
